B1: A25 (ssRNA)
RNA: AAAAAAAAAAAAAAAAAAAAAAAAA
B2: A4 (ssRNA)
RNA: AAAA
B3: A11 (ssRNA)
RNA: AAAAAAAAAAA
B4: A6 (ssRNA)
RNA: AAAAAA
B5: A5A(p) (ssRNA)
RNA: AAAAAA
modifications: 3' phosphate
B6: A3UA2 (ssRNA)
RNA: AAAUAA
B7: A3CA2 (ssRNA)
RNA: AAACAA
B8: A2CA3 (ssRNA)
RNA: AACAAA
B9: ACA4 (ssRNA)
RNA: ACAAAA
B10: U6 (ssRNA)
RNA: UUUUUU
B11: A3 (ssRNA)
RNA: AAA
B12: G6 (ssRNA)
RNA: GGGGGG
B13: C6 (ssRNA)
RNA: CCCCCC
B14: A5C (ssRNA)
RNA: AAAAAC
B15: A4CA (ssRNA)
RNA: AAAACA

Key:
[1] = target: LARP1 323-509 Y336A/F348A (UniProt Q6PKG0-3 323-509, Y336A;F348A); test: ITC; 10 mM MES pH 6.3, 100 mM NaCl, 1 mM TCEP (HPLC and NMR buffer; ITC buffer not stated separately); ITC 293 K, NMR 25 C; conditions: protein: recombinant
[2] = target: LARP1 323-509 Q333A/F348A (UniProt Q6PKG0-3 323-509, Q333A;F348A); test: as above; conditions: protein: recombinant
LARP1 LaM-RRM region = LARP1 LaM-RRM region (UniProt Q6PKG0-3 323-509); test: as above; conditions: protein: recombinant
LARP1 LaM [3] = target: T1, LARP1 LaM (UniProt Q6PKG0-3 323-410); test: as above
LARP1 LaM R345A = LARP1 LaM R345A (UniProt Q6PKG0-3 323-410, R345A); test: as above
LARP1 LaM Q333A = LARP1 LaM Q333A (UniProt Q6PKG0-3 323-410, Q333A); test: as above
LARP1 LaM Q333A/F348A = LARP1 LaM Q333A/F348A (UniProt Q6PKG0-3 323-410, Q333A;F348A); test: as above
LARP1 LaM Y336A/F348A = LARP1 LaM Y336A/F348A (UniProt Q6PKG0-3 323-410, Y336A;F348A); test: as above
LARP1 LaM [4] = target: T1, LARP1 LaM; test: as above; remark: listed apart in the source
LARP1 LaM [5] = target: T1, LARP1 LaM; test: crystal structure; 1.15 A; 10 mM MES pH 6.3, 100 mM NaCl, 1 mM TCEP (HPLC and NMR buffer; ITC buffer not stated separately); ITC 293 K, NMR 25 C

Binder	binding result (LARP1 LaM [3])	binding signal (LARP1 LaM [4]) [fold weaker than A6]	further results
B1			binding result [1]: no binding; binding result [2]: no binding; Kd (LARP1 LaM-RRM region): ~200 nM; Kd (LARP1 LaM [3]): < 1000 nM
B2	binds		binding signal (LARP1 LaM R345A): ~2 fold weaker than wild type; binding signal (LARP1 LaM Q333A): ~20 fold weaker than wild type; binding result (LARP1 LaM Q333A/F348A): no binding; binding result (LARP1 LaM Y336A/F348A): no binding
B3	binds		
B4	binds		
B5		~200	
B6	binds		
B7	binds		
B8	binds		
B9	binds		
B10		~10	
B11			binding result (LARP1 LaM [5]): binds
B12		~10	
B13		> 200	
B14		~10	
B15		~10	

Reference: article PMC9458460, “Structural basis of 3′-end poly(A) RNA recognition by LARP1”
